Results as given in publication PMC12714700.

Target: SARS-CoV-2 Delta spike-ferritin fusion protein (Delta spike-ferritin VLP antigen) (SARS-CoV-2 (Delta variant) | Helicobacter pylori) (UniProt P0DTC2)
Assay: cryo-EM structure

“SARS-CoV-2 Delta spike-ferritin fusion protein (Delta spike-ferritin VLP antigen) (from UniProt P0DTC2 14-1163)” gave a stoichiometry N of 24.
